This experiment deals with Active site-blocked human EGR-bound FIXa (human) (UniProt P00740). Briefly: SPR. In general terms: Surface plasmon resonance follows binding to a sensor surface in real time, without labels.
Sequence of UniProt P00740 (P00740 47-191, chain 1 of 2): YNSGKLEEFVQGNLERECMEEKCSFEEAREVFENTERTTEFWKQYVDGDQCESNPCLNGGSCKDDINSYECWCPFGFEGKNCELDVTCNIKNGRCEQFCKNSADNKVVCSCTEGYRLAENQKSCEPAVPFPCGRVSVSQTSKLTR
Sequence of UniProt P00740 (P00740 227-461, chain 2 of 2): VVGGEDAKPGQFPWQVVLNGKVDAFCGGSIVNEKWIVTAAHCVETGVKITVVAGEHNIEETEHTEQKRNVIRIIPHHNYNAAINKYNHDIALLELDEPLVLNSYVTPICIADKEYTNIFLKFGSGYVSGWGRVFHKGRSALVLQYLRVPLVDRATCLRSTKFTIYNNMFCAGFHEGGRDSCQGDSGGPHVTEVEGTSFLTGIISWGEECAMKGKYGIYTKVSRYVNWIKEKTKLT

For “B domain-deleted FVIII double mutant K1813A/K1818A (natural protein)”, the Kd turned out to be 4.7 nM.
On to “B domain-deleted FVIII mutant K1813A (natural protein)”, for which the Kd is 3.9 nM.
“B domain-deleted FVIII mutant K1818A (natural protein)” displayed an equilibrium dissociation constant (Kd) of 5.1 nM.
Regarding “B domain-deleted WT-FVIII lacking Q744-S1637 (natural protein)”, the Kd is 6.3 nM.

In general, Kd refers to the concentration at which binding is half-saturated. A high value points to a looser complex.

The record behind these values is article PMC10139940.
